Patent publication US7597905

How the values were obtained:
[1] = molecular target: HBsAg particles (hepatitis B virus surface antigen L protein particles expressed in recombinant yeast carrying pGLDLIIP39-RcT) (hepatitis B virus); experiment: Auszyme II EIA kit, S-antigenicity of purified particles
[2] = molecular target: HBsAg (G145R) particles (hepatitis B virus); experiment: as above

Question: Which S-antigenicity [1] does the source give for “Auszyme II EIA kit (Dainabot Co. Ltd.) (antibody)” here?
Answer: 1

Question: What about the S-antigenicity [2] of the same substance?
Answer: 0.2
